Laboratory results from publication PMC10359924, “Identification and characterisation of anti-IL-13 inhibitory single domain antibodies provides new insights into receptor selectivity and attractive opportunities for drug discovery” (Frontiers in Immunology, 2023).

Experiments:
[1] = biological target: human Interleukin-13 (IL-13) (1-113) (Homo sapiens); assay: cell-based or functional assay
[2] = biological target: T1, human Interleukin-13 (IL-13) (1-113) (Homo sapiens); assay: BLI; Octet QKe; N-terminally His-tagged VHH loaded on Ni-NTA biosensors (100 nM), titrated with untagged IL-13; 300 s association, 300 s dissociation; 25°C; HBS-EP+ (10 mM HEPES pH 7.4, 150 mM NaCl, 3 mM EDTA, 0.005% Tween-20); steady-state curves, one-site binding model; settings: both partners purified
T1 construct: source: 15N or 15N/13C labelled for NMR
T1 sequence (chain, as listed by the source): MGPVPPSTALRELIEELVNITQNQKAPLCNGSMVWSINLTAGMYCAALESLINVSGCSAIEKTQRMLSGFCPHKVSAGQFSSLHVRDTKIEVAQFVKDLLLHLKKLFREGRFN

B1: VHH238 (VHH)
VHH: EVQLVESGGGLVQPGGSLRLSCAASGFTISNHDMHWVRQAPGKGLEWVSSINPGGTYTEYRDSVKGRFTISRDNAKNTLYLQMNDLKPQDTAVYYCNAWGKGVEYDYWGQGTQVTVSS
notes: From a naive llama VHH phage library (UCB Biopharma); cloned into pET21a(+); not shown: His6, N-terminal, kept
[1]
  IC50 of inhibition of IL-13 signalling (STAT6/SEAP reporter, HEK-Blue IL-4/IL-13 cells); blocks IL-13 signalling through IL-13Rα1 and IL-4Rα: 1.7 µM
[2]
  Kd: 0.2 µM

B2: VHH235 (VHH)
VHH: EVQLVESGGGLVQPGGSLRLSCAASGFNFGNSAMSWFRQAPGKGLEWVSSINSGGGGSVYRASVKGRFTISRDDAKNTLFLQMNSLKPEDTAVYYCNADTYVPKDGGGWSPEYDIWGQGTLVTVSS
notes: as for B1
[1]
  IC50 of inhibition of IL-13 signalling (STAT6/SEAP reporter, HEK-Blue IL-4/IL-13 cells); blocks IL-13 signalling through IL-13Rα1 and IL-4Rα: 74.3 µM
[2]
  Kd: 3.6 µM

B3: VHH227 (VHH)
VHH: EVQLVESGGNLVQPGGSLRLSCAASGFTFSKYAMNWVRQAPGKGLEWVSAINSFAGSTSYADSVKGRFTISRDNAKNTLYLQMNSLKPEDTAVYYCKYRGYYGQGTQVTVSS
notes: as for B1
[1]
  IC50 of inhibition of IL-13 signalling (STAT6/SEAP reporter, HEK-Blue IL-4/IL-13 cells); blocks IL-13 signalling through IL-13Rα1 and IL-4Rα: 63.5 µM
[2]
  Kd: 5.5 µM

B4: VHH210 (VHH)
VHH: EVQLVESGGGLVQPGGSLRLSCAASGFTFSSSWMYWVRQVPGKGLEWLSDVDPGGGNTYYADSVKGRFTISRDNAKKVLYLQMNSLKPEDTAVYYCNADTYVPKDGGGWSPEYDIWGQGTQVTVSS
notes: as for B1
[1]
  IC50 of inhibition of IL-13 signalling (STAT6/SEAP reporter, HEK-Blue IL-4/IL-13 cells); blocks IL-13 signalling through IL-13Rα1 and IL-4Rα: 0.2 µM
[2]
  Kd: 0.04 µM

B5: VHH209 (VHH)
VHH: EVQLVESGGGLVQPGGSLRLSCAASGFTFSNYAMSWVRQAPGKGLEWVSSIESGSSRTIYRDSVKGRFTISRDNAKNTVYLQMNSLKPEDTAVYYCNADTYVPKDGSGWSPEYDVYGQGTQVTVSS
notes: as for B1
[1]
  IC50 of inhibition of IL-13 signalling (STAT6/SEAP reporter, HEK-Blue IL-4/IL-13 cells); blocks IL-13 signalling through IL-13Rα1 and IL-4Rα: 67.8 µM
[2]
  Kd: 2.2 µM

B6: VHH251 (VHH)
VHH: EVQLVESGGGLVQPGGSLRLSCQASGFAFSSSTMYWVRQTPGKGLEWVSSITRGGTNTYYRDSVKGRFTISRDNNKNALYLQMNSLKPEDTAVYYCNADTYVPKDGGGWSPEYDIWGQGTLVTVSS
notes: as for B1
[1]
  IC50 of inhibition of IL-13 signalling (STAT6/SEAP reporter, HEK-Blue IL-4/IL-13 cells); blocks IL-13 signalling through IL-13Rα1 and IL-4Rα: 6.9 µM
[2]
  Kd: 2.2 µM

B7: VHH264 (VHH)
VHH: EVQLVESGGGLVQPGGSLRLSCQASGFAFSSSTMYWVRQTPGKGLEWVSSITRGGTNTYYRDSVKGRFTISRDDAKNTLYLQMNSLKPEDTAVYYCNADTYVPKDGGGWSPDYDIWGQGTQVTVSS
notes: as for B1
[1]
  IC50 of inhibition of IL-13 signalling (STAT6/SEAP reporter, HEK-Blue IL-4/IL-13 cells); blocks IL-13 signalling through IL-13Rα1 and IL-4Rα: 14.5 µM
[2]
  Kd: 3.9 µM

B8: VHH234 (VHH)
VHH: EVQLVESGGGLVQPGGSLRLSCAASGFTFSSYAMNWVRQAPGKGLEWVSAINSGGGTTDYADSVKGRFTISRDNAKNTLYLQMNSLKPEDTAVYYCARGKLGNGLEWGQGTQVTVSS
notes: as for B1
[1]
  IC50 of inhibition of IL-13 signalling (STAT6/SEAP reporter, HEK-Blue IL-4/IL-13 cells); blocks IL-13 signalling through IL-13Rα1 and IL-4Rα: 49.6 µM
[2]
  Kd: 4.1 µM

B9: VHH245 (VHH)
VHH: EVQLVESGGDLVQPGGSLRLSCSASGFTFDDYAMNWIRQAPGKGLEWVSSISWNGDSTYYAESMKGRFTISRDNAKNTLYLQMNSLQSEDTAVYYCNAQEYVGAHVYDYWGQGTQVTVSS
notes: as for B1
[1]
  IC50 of inhibition of IL-13 signalling (STAT6/SEAP reporter, HEK-Blue IL-4/IL-13 cells); blocks IL-13 signalling through IL-13Rα1 and IL-4Rα: 3.7 µM
[2]
  Kd: 0.2 µM

B10: VHH204 (VHH)
VHH: EVQLVESGGGLVQAGGSLRLSCVASGRTISSYAMTWVRHAPGKGLEWVSTISTDASNTYYADSVKGRFTVSRDNAKNTVYLQMNSLKPEDTALYYCARVRLDGWEYDYWGQGTQVTVSS
notes: From a naive llama VHH phage library (UCB Biopharma); cloned into pET21a(+); also called VH204; not shown: His6, N-terminal, kept
[1]
  IC50 of inhibition of IL-13 signalling (STAT6/SEAP reporter, HEK-Blue IL-4/IL-13 cells); blocks IL-13 signalling through IL-13Rα1 and IL-4Rα: 26.2 µM
[2]
  Kd: 2.6 µM

B11: VHH281 (VHH)
VHH: EVQLVESGGGLVQPGGSLRLSCAASGFTFGSYDMSWVRQAPGKGPEWVSYIDSGGRTTYYADSVKGRFTISRDNARNTVYLQMNSLKPEDTAVYYCAREAHGSGWSAANYYGMDYWGEGTQVTVSS
notes: as for B1
[1]
  IC50 of inhibition of IL-13 signalling (STAT6/SEAP reporter, HEK-Blue IL-4/IL-13 cells); blocks IL-13 signalling through IL-13Rα1 and IL-4Rα: 34.3 µM
[2]
  Kd: 0.4 µM

B12: VHH201 (VHH)
VHH: EVQLVESGGGLVQAGESLTLSCAASGNSFDDYAVGWFRQAPGKEREGVGCINCETGVTTYYADSVKGRFTIHRDNAKNTVYLQMNSLKLEDTATYYCAADRWGTRLVAATYDYWGQGTQVTVSS
notes: as for B1
[1]
  IC50 of inhibition of IL-13 signalling (STAT6/SEAP reporter, HEK-Blue IL-4/IL-13 cells); blocks IL-13 signalling through IL-13Rα1 and IL-4Rα: 37.7 µM
[2]
  Kd: 0.9 µM

B13: VHH228 (VHH)
VHH: QVQLVESGGGLVQPGGSLTLSCAVSGFRFDDYAIGWFRQAPGKEREGVGCINCETGVTTYYADSVKGRFTIHRDNAKNTVYLQMNSLKLEDTATYYCAADRWGTRLVAATYDYWGQGTQVTVSS
notes: as for B1
[1]
  IC50 of inhibition of IL-13 signalling (STAT6/SEAP reporter, HEK-Blue IL-4/IL-13 cells); blocks IL-13 signalling through IL-13Rα1 and IL-4Rα: 56 µM
[2]
  Kd: 0.9 µM

B14: VHH229 (VHH)
VHH: EVQLVESGGGLVQPGGSLRLSCAASGFTFRRYDMSWVRQVPGKGLEWVSDINSGGDSTNYADSVKGRFTISRDNNKNVLYLQMNSLKPEDTAVYYCNADTYVPKDGGGWSPEYDIWGQGTQVTVSS
notes: as for B1
[1]
  IC50 of inhibition of IL-13 signalling (STAT6/SEAP reporter, HEK-Blue IL-4/IL-13 cells); blocks IL-13 signalling through IL-13Rα1 and IL-4Rα: 11.4 µM
[2]
  Kd: 0.2 µM

B15: VHH214 (VHH)
VHH: EVQLVESGGGLVQAGGSLRLSCAASGLLFDINDMGWYRQAPGKQREMVATIRSGGSTVYAEAVKGRFTISRDDAKHSVHLQMNNLKPEDSAVYYCHRTYNSYADWGQGTQVTVSS
notes: as for B1
[1]
  IC50 of inhibition of IL-13 signalling (STAT6/SEAP reporter, HEK-Blue IL-4/IL-13 cells); blocks IL-13 signalling through IL-13Rα1 and IL-4Rα: 154 µM
[2]
  Kd: 4.8 µM
